Reference: paper doi:10.1101/2021.09.16.459956

Molecular target: Paracoccidioides americana (Pb03) Cbp1 (Paracoccidioides americana (Pb03))
Assay: crystal structure

Paracoccidioides americana (Pb03) Cbp1 (natural protein)
stoichiometry N: 2
